Reference: patent publication US20220267469A1 (LIPUM, published 2022)
Values belong to the binder of their own block, whether it stands above or below them.

Target: AS20 scFv
Assay: HTRF competition against 5 nM b-hBSSL for 2.5 nM AS20 scFv
Experimental: In order to study the interaction between AS20 scFv and native mouse BSSL, a competition assay was developed. Detection of binding was enabled through donor molecule terbium-conjugated α-FLAG antibody (Cisbio #611FG2TL), which interacts with the C-terminal located FLAG-tag of the scFv, and acceptor molecule streptavidin-conjugated XL665 (Cisbio #610SAXL), which interacts with the biotin-moieties on human BSSL.
2.5 nM of AS20 scFv was pre-incubated for 2 hours with the mouse or human orthologue of BSSL, after which 5 nM b-hBSSL and the FRET donor and acceptor molecules were added. The mixture was finally incubated at room temperature for 16 hours and the binding signal (665 nm) and background/noise signal (615 nm) was measured using EnVision (PerkinElmer). The experimental output, Delta R, was calculated for each point using four replicates and two blanks.

IC50: ~2 nM
B1: Human BSSL (bile salt-stimulated lipase), native (enzyme)
chain: AKLGAVYTEGGFVEGVNKKLGLLGDSVDIFKGIPFAAPTKALENPQPHPGWQGTLKAKNFKKRCLQATITQDSTYGDEDCLYLNIWVPQGRKQVSRDLPVMIWIYGGAFLMGSGHGANFLNNYLYDGEEIATRGNVIVVTFNYRVGPLGFLSTGDANLPGNYGLRDQHMAIAWVKRNIAAFGGDPNNITLFGESAGGASVSLQTLSPYNKGLIRRAISQSGVALSPWVIQKNPLFWAKKVAEKVGCPVGDAARMAQCLKVTDPRALTLAYKVPLAGLEYPMLHYVGFVPVIDGDFIPADPINLYANAADIDYIAGTNNMDGHIFASIDMPAINKGNKKVTEEDFYKLVSEFTITKGLRGAKTTFDVYTESWAQDPSQENKKKTVVDFETDVLFLVPTEIALAQHRANAKSAKTYAYLFSHPSRMPVYPKWVGADHADDIQYVFGKPFATPTGYRPQDRTVSKAMIAYWTNFAKTGDPNMGDSAVPTHWEPYTTENSGYLEITKKMGSSSMKRSLRTNFLRYWTLTYLALPTVTDQEATPVPPTGDSEATPVPPTGDSETAPVPPTGDSGAPPVPPTGDSGAPPVPPTGDSGAPPVPPTGDSGAPPVPPTGDSGAPPVPPTGDSGAPPVPPTGDSGAPPVPPTGDAGPPPVPPTGDSGAPPVPPTGDSGAPPVTPTGDSETAPVPPTGDSGAPPVPPTGDSEAAPVPPTDDSKEAQMPAVIRF
notes: Native full-length protein purified from human milk (Astra Hässle AB); also called hBSSL; non-biotinylated human BSSL

IC50: 150 to 200 nM
B2: Mouse BSSL, recombinant (enzyme)
chain: AKLGAVYTEGGFVEGVNKKLSLLGGDSVDIFKGIPFATAKTLENPQRHPGWQGTLKATNFKKRCLQATITQDNTYGQEDCLYLNIWVPQGRKQVSHNLPVMVWIYGGAFLMGSGQGANFLKNYLYDGEEIATRGNVIVVTFNYRVGPLGFLSTGDANLPGNFGLRDQHMAIAWVKRNIAAFGGDPDNITIFGESAGAASVSLQTLSPYNKGLIRRAISQSGMALSPWAIQKNPLFWAKTIAKKVGCPTEDTGKMAACLKITDPRALTLAYKLPVKKQEYPVVHYLAFIPVIDGDFIPDDPINLYNNTADIDYIAGINNMDGHLFATIDVPAVDKTKQTVTEEDFYRLVSGHTVAKGLKGAQATFDIYTESWAQDPSQENMKKTVVAFETDVLFLIPTEIALAQHKAHAKSAKTYSYLFSHPSRMPIYPKWMGADHADDLQYVFGKPFATPLGYRPQDRAVSKAMIAYWTNFARSGDPNMGNSPVPTHWYPYTLENGNYLDITKTITSASMKEHLREKFLKFWAVTFEVLPTVTGDQDTLTPPEDDSEVAPDPPSDDSQVVPVPPTDDSVEAQMPATIGF
notes: Bought (R&D Systems, Cat. no 5658-CE); also called mBSSL; murine BSSL
